± gives the uncertainty stated by the source.

A short description of the data set: protein stability index of a GFP-peptide fusion (yeast GPS) (PSI 1-4); higher = more stable; sorted into four equal gates, so the index is relative within each strain. In outline: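 Sequencing reads from sorted gates were used to score each peptide. The library consisted of tiled 17-residue yeast protein peptides fused downstream of GFP on a Cherry-expressing plasmid, pooled and carried in yeast. Mid-log cultures in leucine-free medium were split into four equal gates by GFP/Cherry ratio, and each gate's plasmids were PCR-amplified and Illumina-sequenced. The protein stability index adds up, over all gates, the read frequency multiplied by the gate number.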

Regarding AHMSIGCLHKGKLISNL [YML031W/NDC1], the protein stability index stood at 2.04 ± 0.079 (doa10∆), 1.9 ± 0.058 (pdr5∆), 2.14 ± 0.15 (san1∆) and 1.83 ± 0.065 (ubr1∆).

On to TGKIVDVVGTLSRNGKP [FAS1], for which the protein stability index runs as follows: (doa10∆) 3.33 ± 0.15; (pdr5∆) 3.6 ± 0.13; (san1∆) 3.48 ± 0.094; (ubr1∆) 3.44 ± 0.071.

With GVSLLALWKEKKEKPRS [RPS23A], the protein stability index runs as follows: (doa10∆) 3.12 ± 0.089; (pdr5∆) 2.29 ± 0.11; (san1∆) 2.21 ± 0.1; (ubr1∆) 2.94 ± 0.075.

In turn, QIVPYIEKLTDGHLRAP [BRR2] showed a protein stability index (doa10∆) of 3.04 ± 0.052, a protein stability index (pdr5∆) of 3.1 ± 0.043, a protein stability index (san1∆) of 3.12 ± 0.037 and a protein stability index (ubr1∆) of 3.15 ± 0.051.

Take VQDRGLSAVAQAESMKF [RPS3]: the protein stability index reads like this: (doa10∆) 3.16 ± 0.11; (pdr5∆) 3.16 ± 0.11; (san1∆) 2.73 ± 0.15; (ubr1∆) 2.9 ± 0.075.

The values are drawn from the supplement of paper PMC9732359.
